Reference: patent US20250011363A1, “OPTIMIZED SHORTENED PEPTIDE THAT BINDS TO ACETYLCHOLINE RECEPTOR, AND USE THEREOF” (SKINMED CO., LTD., priority 2021, published 2025)

target: acetylcholine receptor; test: SPR, AchR immobilized on CM5 chip, peptide at 10 uM

Binder | Binding affinity (RU)
KKSFR [5mer-1037] | 28
RCCAK [5mer-1042] | 28
RHCER [5mer-735] | 11
KKDVK [5mer-1039] | 32
KTHMK [5mer-1036] | 23
REWDK [5mer-1033] | 28
KTPWR [5mer-1040] | 17
RMEIK [5mer-745] | 14
REPMK [5mer-748] | 12
KTEAK [5mer-744] | 32
RINVR [5mer-737] | 13
KEHVR [5mer-1035] | 19
RMMGK [5mer-740] | 21
KTPMK [5mer-738] | 29
KMDEK [5mer-1045] | 22
KYDNK [5mer-1048] | 12

Binder | Binding affinity (RU)
RFAKK [5mer-1034] | 14
KTCDR [5mer-733] | 23
RKTDK [5mer-747] | 31
KYAFR [5mer-743] | 15
KATER [5mer-734] | 16
RMTVK [5mer-746] | 26
RNSDK [5mer-742] | 11
KFEMK [5mer-1043] | 15
KHTMR [5mer-1046] | 19
RDWFK [5mer-1041] | 27
KKHHR [5mer-736] | 24
KDCPR [5mer-739] | 16
KAHMR [5mer-1047] | 23
KPTPR [5mer-741] | 14
KCCKR [5mer-1038] | 17
RDCFK [5mer-1044] | 22

target: acetylcholine receptor; test: SPR, receptor immobilized on CM5 chip, peptide 10 uM

Binder | Binding affinity (RU)
KKLYRR [6mer-1-294] | 123
RRWQQK [6mer-1-300] | 148
KKGICK [6mer-1-309] | 153
RKQLTK [6mer-1-290] | 146
RRGQSR [6mer-1-302] | 151
RRGYQK [6mer-1-311] | 127
KKLYCK [6mer-1-298] | 147
KRWYRR [6mer-1-307] | 153
RKRVCK [6mer-1-293] | 154
RRLRYR [6mer-1-279] | 145
RKRRQR [6mer-1-269] | 142
RRRILR [6mer-1-314] | 141
RKLYSR [6mer-1-304] | 121
RRRRYR [6mer-1-282] | 121
KRWLSK [6mer-1-299] | 139
KKSRQK [6mer-1-312] | 151
KRLLYK [6mer-1-274] | 135
KRQRCR [6mer-1-295] | 148
RKLQCK [6mer-1-280] | 149
RRSILR [6mer-1-301] | 154
RKWQTK [6mer-1-292] | 122
KRRITR [6mer-1-308] | 135
KRLLCR [6mer-1-281] | 154

Binder | Binding affinity (RU)
KKGLCR [6mer-1-277] | 141
RKRVLK [6mer-1-275] | 123
KRGLRR [6mer-1-270] | 149
KKWVQK [6mer-1-283] | 133
KRWVQR [6mer-1-285] | 122
RKRQLK [6mer-1-310] | 127
RKQYCK [6mer-1-303] | 123
RRQVSK [6mer-1-271] | 122
KKVQQR [6mer-1-288] | 148
KKLFYR [6mer-1-306] | 135
KRSRQK [6mer-1-284] | 145
KKQIRK [6mer-1-291] | 142
KRQQTR [6mer-1-278] | 142
RRWFCK [6mer-1-313] | 148
RKWISR [6mer-1-305] | 153
KKQVSR [6mer-1-272] | 139
RRGFSK [6mer-1-297] | 139
KKQVSK [6mer-1-273] | 137
RRVICK [6mer-1-276] | 128
RKSIRR [6mer-1-296] | 121
RKWLTR [6mer-1-287] | 136
RKLISK [6mer-1-286] | 139
RKRYYR [6mer-1-289] | 153
